Experimental data as given in patent publication US20110034673A1 (Kyowa Kirin, published 2011).
Substitutions are numbered along the chain they refer to. Blank lines part the entries; values can stand above or below the binder they belong to.

How the values were obtained:
[1] = target: bovine serum albumin (BSA) (bovine, UniProt P02769 25-607); experiment: binding ELISA
mouse HB-EGF = target: T1, mouse HB-EGF (mouse, UniProt Q06186 63-148, limits assumed); experiment: not described
T1 sequence (looked up): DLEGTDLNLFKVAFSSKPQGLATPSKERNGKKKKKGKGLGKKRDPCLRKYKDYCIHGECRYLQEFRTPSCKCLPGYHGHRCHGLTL

[2] = target: T2, recombinant secretory human HB-EGF manufactured by R & D System (catalogue number 259-HE/CF) (human, UniProt Q99075 63-148); experiment: SPR (Biacore T-100), HB-EGF immobilized on CM5 chip, antibody in flow
T2 construct: also called recombinant human HB-EGF; secretory HB-EGF
T2 sequence (Q99075 63-148 limits assumed): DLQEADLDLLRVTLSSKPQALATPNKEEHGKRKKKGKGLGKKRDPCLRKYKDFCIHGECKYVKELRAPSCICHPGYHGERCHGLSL
Protocol: (§1) In order to analyze binding activities of a mouse antibody KM3566 and the chimeric antibody KM3966 for human HB-EGF in reaction kinetics, the binding activity measurement was carried out using Biacore. All of the following operations were carried out using Biacore T-100 (manufactured by Biacore). Human HB-EGF (manufactured by R & D) prepared into 5 μg/ml using HBS-EP Buffer (manufactured by Biacore) was immobilized onto a CM 5 sensor chip (manufactured by Biacore) to a level of 80 RU (resonance unit) by an amine coupling method. Thereafter, each antibody diluted 5-fold from 9 nmol/l was let flow on the chip at a rate of 10 μl/min, and by analyzing the sensor-gram at each concentration, the association rate constant and dissociation rate constant of each antibody for human HB-EGF were calculated.
It was confirmed based on the results that both antibodies almost the same binding activity for human HB-EGF.

[3] = target: T2, recombinant secretory human HB-EGF …; experiment: SPR (BIACORE T100), HB-EGF immobilized, antibody in flow
Protocol: as §1
In order to reaction-kinetically analyze binding activity of the anti-HB-EGF humanized antibodies for human HB-EGF, it was measured in the same manner as in Example 7(2) using BIACORE T100 (manufactured by BIACORE).
As a result, human HB-EGF binding activity of the anti-HB-EGF humanized antibody HV0LV0 in which the CDRs of anti-HB-EGF chimeric antibody KM3966 were simply transplanted into human framework was reduced close to about ½ of that of the anti-HB-EGF chimeric antibody KM3966, but the binding activity of the anti-HB-EGF humanized antibody HV7LV0 in which amino acid modification was added to the H chain alone and the anti-HB-EGF humanized antibody HV7LV5 in which amino acid modification was added to the H chain and L chain was increased to almost the same level of the anti-HB-EGF chimeric antibody KM3966.

[4] = target: T2, recombinant secretory human HB-EGF …; experiment: SPR (BIACORE T100), HB-EGF immobilized
Protocol: as §1
In order to reaction-kinetically analyze binding activity of the anti-HB-EGF humanized antibodies for human HB-EGF, it was measured in the same manner as in Example 7(2) using BIACORE T100 (manufactured by BIACORE). […]

bovine serum albumin (BSA), sequence (P02769 25-607 limits assumed): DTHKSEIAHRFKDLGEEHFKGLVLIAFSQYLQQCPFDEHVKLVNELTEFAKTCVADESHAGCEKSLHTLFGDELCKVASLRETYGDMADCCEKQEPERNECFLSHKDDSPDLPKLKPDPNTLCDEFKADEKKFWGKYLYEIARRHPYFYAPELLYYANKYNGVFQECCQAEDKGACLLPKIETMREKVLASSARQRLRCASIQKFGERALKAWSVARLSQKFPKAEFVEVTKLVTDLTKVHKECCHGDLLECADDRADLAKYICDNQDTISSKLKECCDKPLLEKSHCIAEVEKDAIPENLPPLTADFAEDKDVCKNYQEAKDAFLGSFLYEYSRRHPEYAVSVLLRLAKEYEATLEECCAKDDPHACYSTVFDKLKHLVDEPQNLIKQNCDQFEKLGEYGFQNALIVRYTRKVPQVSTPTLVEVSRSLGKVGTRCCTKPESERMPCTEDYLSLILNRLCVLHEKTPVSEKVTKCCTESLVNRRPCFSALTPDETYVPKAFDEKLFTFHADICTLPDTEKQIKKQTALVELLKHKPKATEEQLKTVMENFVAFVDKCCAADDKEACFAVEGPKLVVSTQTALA

binding result (mouse HB-EGF): no binding
kon [2]: 270000 M⁻¹ s⁻¹
B1: anti-HB-EGF monoclonal antibody KM3566 (antibody, V domains shown)
VH: QVQLQQSGTELARPGASVKLSCKASGYTFRTYGITWVKQRTGQGLEWIGEIFPGSGNTYYNEKFKGKASLTADKSSSTAYMQLSSLTSEDSAVYFCARESFSDGYYGYFDYWGQGTTLTVSS
VL: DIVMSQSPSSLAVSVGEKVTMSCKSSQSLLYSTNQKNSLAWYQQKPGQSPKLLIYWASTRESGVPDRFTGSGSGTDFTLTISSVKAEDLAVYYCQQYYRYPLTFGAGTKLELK
notes: also called anti-HB-EGF mouse antibody KM3566; monoclonal antibody produced by hybridoma KM3566 (FERM BP-10490)
binding result [1]: no binding (tested: diluted stepwise from 10 µg/ml)

binding result (mouse HB-EGF): no binding
kon [2]: 240000 M⁻¹ s⁻¹
kon [3]: 187000 M⁻¹ s⁻¹
B2: anti-HB-EGF chimeric antibody KM3966 (antibody, V domains shown)
VH: B1 VH
VL: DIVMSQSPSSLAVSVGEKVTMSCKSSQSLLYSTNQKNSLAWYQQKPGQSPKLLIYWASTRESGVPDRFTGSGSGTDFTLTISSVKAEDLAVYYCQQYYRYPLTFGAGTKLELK
notes: Human chimeric IgG class antibody made with the vector pKANTEX93 (WO 97/10354); also called human chimeric antibody KM3966; anti-HB-EGF monoclonal antibody KM3966

kon [3]: 174000 M⁻¹ s⁻¹
B3: anti-HB-EGF humanized antibody HV7LV0 (antibody, V domains shown)
VH: QVQLVQSGAEVKKPGASVKLSCKASGYTFRTYGITWVRQAPGQGLEWIGEIFPGSGNTYYNEKFKGRATLTADKSTSTAYMELSSLRSEDTAVYFCARESFSDGYYGYFDYWGQGTLLTVSS
VL: DIVMTQSPDSLAVSLGERATINCKSSQSLLYSTNQKNSLAWYQQKPGQPPKLLIYWASTRESGVPDRFSGSGSGTDFTLTISSLQAEDVAVYYCQQYYRYPLTFGQGTKLEIK
notes: Whole humanized antibody from pKANTEX93

kon [3]: 104000 M⁻¹ s⁻¹
human HB-EGF binding activity relative to KM3966 [4]: ~0.5 fold of KM3966
B4: anti-HB-EGF humanized antibody HV0LV0 (antibody, V domains shown)
VH: B3 VH with L20V, R30T, I48M, A68V, L70I, F95Y, L118V
VL: B3 VL
notes: Whole humanized antibody expressed from pKANTEX93

kon [3]: 170000 M⁻¹ s⁻¹
B5: anti-HB-EGF humanized antibody HV7LV5 (antibody, V domains shown)
VH: B3 VH
VL: B3 VL with L15V, A19V, I21M, P49S, L84V
notes: as for B3
